# Reference: patent publication US20220178930A1
# Where “and” joins values, the source holds several entries; their conditions need not be identical. Equal values may be shown once.
# Assays:
# Galectin-9 (human) [1] = target: Galectin-9 (human) (UniProt O00182); assay: flow cytometry, EPCAM+ tumor cells, S3 organoid fraction, PDA
# Galectin-9 (human) [2] = target: Galectin-9 (human) (UniProt O00182); assay: flow cytometry, EPCAM+ tumor cells, S2 single cell fraction, CRC
# Galectin-9 (human) [3] = target: Galectin-9 (human) (UniProt O00182); assay: flow cytometry, CD11b+ myeloid cells, S2 single cell fraction, CRC
# Galectin-9 (human) [4] = target: Galectin-9 (human) (UniProt O00182); assay: flow cytometry, CD3+ T cells, S3 organoid fraction, CRC
# Galectin-9 (human) [5] = target: Galectin-9 (human) (UniProt O00182); assay: flow cytometry, CD3+ T cells, S3 organoid fraction, PDA
# Galectin-9 (human) [6] = target: Galectin-9 (human) (UniProt O00182); assay: flow cytometry, CD11b+ myeloid cells, S3 organoid fraction, HCC
# Galectin-9 (human) [7] = target: Galectin-9 (human) (UniProt O00182); assay: flow cytometry, CD11b+ myeloid cells, S3 organoid fraction, Pancreas NET
# Galectin-9 (human) [8] = target: Galectin-9 (human) (UniProt O00182); assay: flow cytometry, EPCAM+ tumor cells, S2 single cell fraction, Pancreas NET
# Galectin-9 (human) [9] = target: Galectin-9 (human) (UniProt O00182); assay: flow cytometry, EPCAM+ tumor cells, S3 organoid fraction, HCC
# Galectin-9 (human) [10] = target: Galectin-9 (human) (UniProt O00182); assay: flow cytometry, CD3+ T cells, S2 single cell fraction, Pancreas NET
# Galectin-9 (human) [11] = target: Galectin-9 (human) (UniProt O00182); assay: flow cytometry, EPCAM+ tumor cells, S3 organoid fraction, Liver NET
# Galectin-9 (human) [12] = target: Galectin-9 (human) (UniProt O00182); assay: flow cytometry, EPCAM+ tumor cells, S3 organoid fraction, Pancreas NET
# Galectin-9 (human) [13] = target: Galectin-9 (human) (UniProt O00182); assay: flow cytometry, EPCAM+ tumor cells, S2 single cell fraction, PDA
# Galectin-9 (human) [14] = target: Galectin-9 (human) (UniProt O00182); assay: flow cytometry, CD11b+ myeloid cells, S3 organoid fraction, PDA
# Galectin-9 (human) [15] = target: Galectin-9 (human) (UniProt O00182); assay: flow cytometry, CD3+ T cells, S3 organoid fraction, CRC liver metastasis
# Galectin-9 (human) [16] = target: Galectin-9 (human) (UniProt O00182); assay: flow cytometry, EPCAM+ tumor cells, S2 single cell fraction, Liver NET
# Galectin-9 (human) [17] = target: Galectin-9 (human) (UniProt O00182); assay: flow cytometry, EPCAM+ tumor cells, S3 organoid fraction, CRC liver metastasis
# Galectin-9 (human) [18] = target: Galectin-9 (human) (UniProt O00182); assay: flow cytometry, EPCAM+ tumor cells, S3 organoid fraction, CRC
# Galectin-9 (human) [19] = target: Galectin-9 (human) (UniProt O00182); assay: flow cytometry, CD11b+ myeloid cells, S2 single cell fraction, PDA
# Galectin-9 (human) [20] = target: Galectin-9 (human) (UniProt O00182); assay: flow cytometry, CD11b+ myeloid cells, S2 single cell fraction, CRC liver metastasis
# Galectin-9 (human) [21] = target: Galectin-9 (human) (UniProt O00182); assay: flow cytometry, CD11b+ myeloid cells, S3 organoid fraction, CRC liver metastasis
# Galectin-9 (human) [22] = target: Galectin-9 (human) (UniProt O00182); assay: flow cytometry, EPCAM+ tumor cells, S2 single cell fraction, CRC liver metastasis
# Galectin-9 (human) [23] = target: Galectin-9 (human) (UniProt O00182); assay: flow cytometry, CD3+ T cells, S3 organoid fraction, Pancreas NET
# Galectin-9 (human) [24] = target: Galectin-9 (human) (UniProt O00182); assay: flow cytometry, CD11b+ myeloid cells, S2 single cell fraction, Pancreas NET
# Galectin-9 (human) [25] = target: Galectin-9 (human) (UniProt O00182); assay: flow cytometry, CD3+ T cells, S2 single cell fraction, PDA
# Galectin-9 (human) [26] = target: Galectin-9 (human) (UniProt O00182); assay: flow cytometry, CD3+ T cells, S2 single cell fraction, CRC liver metastasis
# Galectin-9 (human) [27] = target: Galectin-9 (human) (UniProt O00182); assay: flow cytometry, CD3+ T cells, S3 organoid fraction, HCC
# Galectin-9 (human) [28] = target: Galectin-9 (human) (UniProt O00182); assay: flow cytometry, CD3+ T cells, S2 single cell fraction, CRC
# Galectin-9 (human) [29] = target: Galectin-9 (human) (UniProt O00182); assay: flow cytometry, CD11b+ myeloid cells, S3 organoid fraction, CRC
# Galectin-9 (human), sequence (O00182 whole entry): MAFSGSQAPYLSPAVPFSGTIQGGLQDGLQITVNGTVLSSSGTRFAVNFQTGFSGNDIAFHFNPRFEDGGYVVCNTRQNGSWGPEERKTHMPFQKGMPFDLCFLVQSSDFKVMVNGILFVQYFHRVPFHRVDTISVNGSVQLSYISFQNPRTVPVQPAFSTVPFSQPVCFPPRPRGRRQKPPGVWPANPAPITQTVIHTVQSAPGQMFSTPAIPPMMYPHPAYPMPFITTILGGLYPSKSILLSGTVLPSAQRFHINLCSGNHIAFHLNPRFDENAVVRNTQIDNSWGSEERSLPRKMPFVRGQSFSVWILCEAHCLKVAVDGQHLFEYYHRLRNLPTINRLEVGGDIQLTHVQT
substance,measurement,setting,value
Fab isotype,% Gal9 expression based on staining,Galectin-9 (human) [1],0.17% and 0.94%
same,% Gal9 expression based on staining,Galectin-9 (human) [2],0.64% and 3.97%
same,% Gal9 expression based on staining,Galectin-9 (human) [3],2.86% and 5.84%
same,% Gal9 expression based on staining,Galectin-9 (human) [4],0% and 15.3% and 0.87%
same,% Gal9 expression based on staining,Galectin-9 (human) [5],0% and 0.59%
same,% Gal9 expression based on staining,Galectin-9 (human) [6],1.72%
same,% Gal9 expression based on staining,Galectin-9 (human) [7],1.87%
same,% Gal9 expression based on staining,Galectin-9 (human) [8],2.41%
same,% Gal9 expression based on staining,Galectin-9 (human) [9],5.84%
same,% Gal9 expression based on staining,Galectin-9 (human) [10],32.2%
same,% Gal9 expression based on staining,Galectin-9 (human) [11],0.02%
same,% Gal9 expression based on staining,Galectin-9 (human) [12],4.19%
same,% Gal9 expression based on staining,Galectin-9 (human) [13],0.15% and 0.88%
same,% Gal9 expression based on staining,Galectin-9 (human) [14],3.83% and 0.54%
same,% Gal9 expression based on staining,Galectin-9 (human) [15],0%
same,% Gal9 expression based on staining,Galectin-9 (human) [16],0.45%
same,% Gal9 expression based on staining,Galectin-9 (human) [17],0.06%
same,% Gal9 expression based on staining,Galectin-9 (human) [18],0.21% and 2.27% and 0.55%
same,% Gal9 expression based on staining,Galectin-9 (human) [19],1.19% and 0%
same,% Gal9 expression based on staining,Galectin-9 (human) [20],1.2%
same,% Gal9 expression based on staining,Galectin-9 (human) [21],1.5%
same,% Gal9 expression based on staining,Galectin-9 (human) [22],0.15%
same,% Gal9 expression based on staining,Galectin-9 (human) [23],4.96%
same,% Gal9 expression based on staining,Galectin-9 (human) [24],16.2%
same,% Gal9 expression based on staining,Galectin-9 (human) [25],0% and 0.52%
same,% Gal9 expression based on staining,Galectin-9 (human) [26],0.56%
same,% Gal9 expression based on staining,Galectin-9 (human) [27],1.14%
same,% Gal9 expression based on staining,Galectin-9 (human) [28],2.5% and 1.59%
same,% Gal9 expression based on staining,Galectin-9 (human) [29],0.38% and 11.8% and 2.4%
